Numbered stars: 1 amine (or outer) side, 2 acyl side, 3 side chain; on linkers, the order of the positions; unused ones are H or OH. Square brackets hold non-standard residues; d marks the D form. Side chains are listed from the residue outwards. Ends that are not written are not given here. * marks the point of attachment. Phe(4-CH2NH2) = NCc1ccc(C[C@H](N)C(=O)O)cc1; C18 diacid = O=C(O)CCCCCCCCCCCCCCCCC(=O)*; γGlu = O=C(O)[C@H](CCC(=O)[*:2])N[*:1]; Met(O2) = CS(=O)(=O)CC[C@H](N)C(=O)O; AEEA = NCCOCCOCC(=O)O; Aib = CC(C)(N)C(=O)O
B1: TP701 (peptide)
peptide: H[Aib]QGTFTSDYSKYLDERAAKDFVK([AEEA-AEEA-γGlu-C18 diacid])WL[Met(O2)]DT-NH2
modifications: N-terminus assumed
SMILES: CC(C)C[C@H](NC(=O)[C@H](Cc1ccc(O)cc1)NC(=O)[C@H](CCCCN)NC(=O)[C@H](CO)NC(=O)[C@H](Cc1ccc(O)cc1)NC(=O)[C@H](CC(=O)O)NC(=O)[C@H](CO)NC(=O)[C@@H](NC(=O)[C@H](Cc1ccccc1)NC(=O)[C@@H](NC(=O)CNC(=O)[C@H](CCC(N)=O)NC(=O)C(C)(C)NC(=O)[C@@H](N)Cc1c[nH]cn1)[C@@H](C)O)[C@@H](C)O)C(=O)N[C@@H](CC(=O)O)C(=O)N[C@@H](CCC(=O)O)C(=O)N[C@@H](CCCNC(=N)N)C(=O)N[C@@H](C)C(=O)N[C@@H](C)C(=O)N[C@@H](CCCCN)C(=O)N[C@@H](CC(=O)O)C(=O)N[C@@H](Cc1ccccc1)C(=O)N[C@H](C(=O)N[C@@H](CCCCNC(=O)COCCOCCNC(=O)COCCOCCNC(=O)CC[C@H](NC(=O)CCCCCCCCCCCCCCCCC(=O)O)C(=O)O)C(=O)N[C@@H](Cc1c[nH]c2ccccc12)C(=O)N[C@@H](CC(C)C)C(=O)N[C@@H](CCS(C)(=O)=O)C(=O)N[C@@H](CC(=O)O)C(=O)N[C@H](C(N)=O)[C@@H](C)O)C(C)C
B2: TP700 (peptide)
peptide: H[Aib]QGTFTSDYSEYLDKRAAQDFVK([AEEA-AEEA-γGlu-C18 diacid])WL[Met(O2)]DT-NH2
modifications: N-terminus assumed
SMILES: CC(C)C[C@H](NC(=O)[C@H](Cc1ccc(O)cc1)NC(=O)[C@H](CCC(=O)O)NC(=O)[C@H](CO)NC(=O)[C@H](Cc1ccc(O)cc1)NC(=O)[C@H](CC(=O)O)NC(=O)[C@H](CO)NC(=O)[C@@H](NC(=O)[C@H](Cc1ccccc1)NC(=O)[C@@H](NC(=O)CNC(=O)[C@H](CCC(N)=O)NC(=O)C(C)(C)NC(=O)[C@@H](N)Cc1c[nH]cn1)[C@@H](C)O)[C@@H](C)O)C(=O)N[C@@H](CC(=O)O)C(=O)N[C@@H](CCCCN)C(=O)N[C@@H](CCCNC(=N)N)C(=O)N[C@@H](C)C(=O)N[C@@H](C)C(=O)N[C@@H](CCC(N)=O)C(=O)N[C@@H](CC(=O)O)C(=O)N[C@@H](Cc1ccccc1)C(=O)N[C@H](C(=O)N[C@@H](CCCCNC(=O)COCCOCCNC(=O)COCCOCCNC(=O)CC[C@H](NC(=O)CCCCCCCCCCCCCCCCC(=O)O)C(=O)O)C(=O)N[C@@H](Cc1c[nH]c2ccccc12)C(=O)N[C@@H](CC(C)C)C(=O)N[C@@H](CCS(C)(=O)=O)C(=O)N[C@@H](CC(=O)O)C(=O)N[C@H](C(N)=O)[C@@H](C)O)C(C)C

molecular target: human GLP-1 receptor (GLP1R) (human, UniProt P43220 24-463); assay: cell-based or functional assay

Row | Binder | GLP1R EC50 human [nM]
1 | H[Aib]QGTFTSDYSKYLDARAAQ[Phe(4-CH2NH2)]([AEEA-AEEA-γGlu-C20‑OH])FVQWLLDT-NH2 [TP585] | 0.566
2 | B1 | 0.18
3 | B2 | 0.35

molecular target: human Glucagon receptor (GCGR) (human, UniProt P47871 26-477); assay: cell-based or functional assay
Sequence (P47871 26-477): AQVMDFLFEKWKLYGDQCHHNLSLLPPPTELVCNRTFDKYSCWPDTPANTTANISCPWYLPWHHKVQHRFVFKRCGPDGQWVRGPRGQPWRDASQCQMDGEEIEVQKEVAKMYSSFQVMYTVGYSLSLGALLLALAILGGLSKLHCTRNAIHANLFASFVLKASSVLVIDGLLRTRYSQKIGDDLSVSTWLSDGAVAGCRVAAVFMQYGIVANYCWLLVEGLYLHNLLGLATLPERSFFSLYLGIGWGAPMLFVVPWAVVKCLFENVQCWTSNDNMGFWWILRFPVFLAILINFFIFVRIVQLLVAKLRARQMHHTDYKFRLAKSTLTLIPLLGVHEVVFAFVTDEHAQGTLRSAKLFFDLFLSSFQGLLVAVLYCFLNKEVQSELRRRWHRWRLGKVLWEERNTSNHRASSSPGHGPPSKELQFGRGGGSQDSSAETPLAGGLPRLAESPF

Row | Binder | GCGR EC50 human [nM]
4 | H[Aib]QGTFTSDYSKYLDARAAQ[Phe(4-CH2NH2)]([AEEA-AEEA-γGlu-C20‑OH])FVQWLLDT-NH2 [TP585] | 1.13
5 | B1 | > 4.9
6 | B2 | > 4.9
